Source: patent US20140134647A1 (LA JOLLA INSTITUTE FOR ALLERGY AND IMMUNOLOGY, published 2014)
Several values for one entry are separate records, joined by “and”; a condition that tells them apart may be missing. Equal entries are not always repeated. Where two headings read alike, the source gives them in different places.

Key:
[1] = biological target: CD155-Fc (CD155/PVR ectodomain Fc fusion) (human) (UniProt P15151)
[2] = biological target: CD155-Fc (CD155/PVR ectodomain Fc fusion) (human) (UniProt P15151); assay: SPR; CD155-Fc immobilized, pre-formed UL141-TRAIL-R2 complex analyte
[3] = biological target: CD155-Fc (CD155/PVR ectodomain Fc fusion) (human) (UniProt P15151); assay: SPR, KDave; CD155-Fc immobilized, pre-formed UL141-TRAIL-R2 complex analyte
[4] = biological target: TRAIL-R2-Fc double mutant L110A/L114A (human) (UniProt O14763)
Sequence of TRAIL-R2-Fc double mutant L110A/L114A (human) (O14763 other isoform, or with tags, fused parts or gaps L110A L114A L110A L114A limits assumed): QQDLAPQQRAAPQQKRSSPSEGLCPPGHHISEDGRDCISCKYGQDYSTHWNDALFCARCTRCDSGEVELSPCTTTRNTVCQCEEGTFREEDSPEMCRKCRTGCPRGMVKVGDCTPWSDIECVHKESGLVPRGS

[5] = biological target: TRAIL-R2-Fc mutant D148A (human) (UniProt O14763)
Sequence of TRAIL-R2-Fc mutant D148A (human) (O14763 other isoform, or with tags, fused parts or gaps D148A D148A limits assumed): as the sequence (O14763 other isoform, or with tags, fused parts or gaps L110A L114A L110A L114A limits assumed) above, with A53L, A57L, D91A counted along it

[6] = biological target: TRAIL-R2-Fc mutant F112A (human) (UniProt O14763)
Sequence of TRAIL-R2-Fc mutant F112A (human) (O14763 other isoform, or with tags, fused parts or gaps F112A F112A limits assumed): as the sequence (O14763 other isoform, or with tags, fused parts or gaps L110A L114A L110A L114A limits assumed) above, with A53L, F55A, A57L counted along it

[7] = biological target: TRAIL-R2-Fc mutant V167A (human) (UniProt O14763)
Sequence of TRAIL-R2-Fc mutant V167A (human) (O14763 other isoform, or with tags, fused parts or gaps V167A V167A limits assumed): as the sequence (O14763 other isoform, or with tags, fused parts or gaps L110A L114A L110A L114A limits assumed) above, with A53L, A57L, V110A counted along it

[8] = biological target: TRAIL-R2-Fc double mutant L110A/L114A (human) (UniProt O14763); assay: SPR, alanine mutant
[9] = biological target: CD155-Fc (CD155/PVR ectodomain Fc fusion) (human) (UniProt P15151); assay: SPR; CD155-Fc immobilized, UL141 analyte
[10] = biological target: TRAIL-R1-Fc (human TRAIL-R1/DR4 ectodomain Fc fusion) (human) (UniProt O00220); assay: SPR; TRAIL-R1-Fc immobilized, UL141 analyte
Sequence of TRAIL-R1-Fc (human TRAIL-R1/DR4 ectodomain Fc fusion) (human) (O00220 24-239): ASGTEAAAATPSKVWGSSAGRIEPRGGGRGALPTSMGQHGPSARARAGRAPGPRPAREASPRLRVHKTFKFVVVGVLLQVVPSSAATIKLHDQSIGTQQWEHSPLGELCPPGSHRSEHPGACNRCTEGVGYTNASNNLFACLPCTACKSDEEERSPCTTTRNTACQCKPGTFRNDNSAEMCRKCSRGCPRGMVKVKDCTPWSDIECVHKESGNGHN

[11] = biological target: TRAIL-R2-Fc (human TRAIL-R2 aa 58-184, thrombin site, Fc of human IgG1), wild type (human) (UniProt O14763); assay: SPR; TRAIL-R2-Fc immobilized, UL141 analyte
Sequence of TRAIL-R2-Fc (human TRAIL-R2 aa 58-184, thrombin site, Fc of human IgG1), wild type (human) (O14763 other isoform, or with tags, fused parts or gaps limits assumed): as the sequence (O14763 other isoform, or with tags, fused parts or gaps L110A L114A L110A L114A limits assumed) above, with A53L, A57L counted along it

[12] = biological target: CD155-Fc (CD155/PVR ectodomain Fc fusion) (human) (UniProt P15151); assay: SPR, KDave; CD155-Fc immobilized, UL141 analyte
[13] = biological target: TRAIL-R2-Fc (human TRAIL-R2 aa 58-184, thrombin site, Fc of human IgG1), wild type (human) (UniProt O14763); assay: SPR, KDave; TRAIL-R2-Fc immobilized, UL141 analyte
[14] = biological target: CD155-Fc (CD155/PVR ectodomain Fc fusion) (human) (UniProt P15151); assay: SPR, kinetic 1:1 fit; CD155-Fc immobilized, UL141 analyte
[15] = biological target: TRAIL-R1-Fc (human TRAIL-R1/DR4 ectodomain Fc fusion) (human) (UniProt O00220); assay: SPR, kinetic 1:1 fit; TRAIL-R1-Fc immobilized, UL141 analyte
[16] = biological target: TRAIL-R2-Fc (human TRAIL-R2 aa 58-184, thrombin site, Fc of human IgG1), wild type (human) (UniProt O14763); assay: SPR, kinetic 1:1 fit; TRAIL-R2-Fc immobilized, UL141 analyte
[17] = biological target: TRAIL-R2-Fc (human TRAIL-R2 aa 58-184, thrombin site, Fc of human IgG1), wild type (human) (UniProt O14763); assay: SPR; TRAIL-R2-Fc captured on anti-human Fc chip, UL141 analyte
[18] = biological target: TRAIL-R1-Fc (human TRAIL-R1/DR4 ectodomain Fc fusion) (human) (UniProt O00220); assay: SPR, steady-state (KDeq); TRAIL-R1-Fc immobilized, UL141 analyte
[19] = biological target: TRAIL-R2-Fc double mutant E78A/D109A (human) (UniProt O14763); assay: SPR; TRAIL-R2-Fc mutant captured on anti-human Fc chip, UL141 analyte
Sequence of TRAIL-R2-Fc double mutant E78A/D109A (human) (O14763 other isoform, or with tags, fused parts or gaps E78A D109A E78A D109A limits assumed): as the sequence (O14763 other isoform, or with tags, fused parts or gaps L110A L114A L110A L114A limits assumed) above, with E21A, D52A, A53L, A57L counted along it

[20] = biological target: TRAIL-R2-Fc double mutant L110A/L114A (human) (UniProt O14763); assay: as above
[21] = biological target: TRAIL-R2-Fc mutant D148A (human) (UniProt O14763); assay: as above
[22] = biological target: TRAIL-R2-Fc mutant F112A (human) (UniProt O14763); assay: as above
[23] = biological target: TRAIL-R2-Fc mutant K155A (human) (UniProt O14763); assay: as above
Sequence of TRAIL-R2-Fc mutant K155A (human) (O14763 other isoform, or with tags, fused parts or gaps K155A K155A limits assumed): as the sequence (O14763 other isoform, or with tags, fused parts or gaps L110A L114A L110A L114A limits assumed) above, with A53L, A57L, K98A counted along it

[24] = biological target: TRAIL-R2-Fc mutant M152A (human) (UniProt O14763); assay: as above
Sequence of TRAIL-R2-Fc mutant M152A (human) (O14763 other isoform, or with tags, fused parts or gaps M152A M152A limits assumed): as the sequence (O14763 other isoform, or with tags, fused parts or gaps L110A L114A L110A L114A limits assumed) above, with A53L, A57L, M95A counted along it

[25] = biological target: TRAIL-R2-Fc mutant P150A (human) (UniProt O14763); assay: as above
Sequence of TRAIL-R2-Fc mutant P150A (human) (O14763 other isoform, or with tags, fused parts or gaps P150A P150A limits assumed): as the sequence (O14763 other isoform, or with tags, fused parts or gaps L110A L114A L110A L114A limits assumed) above, with A53L, A57L, P93A counted along it

[26] = biological target: TRAIL-R2-Fc mutant R154A (human) (UniProt O14763); assay: as above
Sequence of TRAIL-R2-Fc mutant R154A (human) (O14763 other isoform, or with tags, fused parts or gaps R154A R154A limits assumed): as the sequence (O14763 other isoform, or with tags, fused parts or gaps L110A L114A L110A L114A limits assumed) above, with A53L, A57L, R97A counted along it

[27] = biological target: TRAIL-R2-Fc mutant V167A (human) (UniProt O14763); assay: as above
[28] = biological target: TRAIL-R2-Fc triple mutant M152A/R154A/K155A (human) (UniProt O14763); assay: as above
Sequence of TRAIL-R2-Fc triple mutant M152A/R154A/K155A (human) (O14763 other isoform, or with tags, fused parts or gaps M152A R154A K155A M152A R154A K155A limits assumed): as the sequence (O14763 other isoform, or with tags, fused parts or gaps L110A L114A L110A L114A limits assumed) above, with A53L, A57L, M95A, R97A, K98A counted along it

[29] = biological target: TRAIL-R1-Fc (human TRAIL-R1/DR4 ectodomain Fc fusion) (human) (UniProt O00220); assay: SPR, average of KDeq and KD (KDave); TRAIL-R1-Fc immobilized, UL141 analyte
[30] = biological target: T1, mouse TRAIL-R2:Fc (extracellular domain of mouse TRAIL-R2 fused to human IgG constant domain) (mouse; human, UniProt Q9QZM4 53-180; P01857 104-330 = IgG part); assay: ELISA-based assay
T1 construct: extracellular domain;domain: human IgG VH constant domain; also called mTRAIL-R2:Fc
T1 sequence (Q9QZM4 other isoform, or with tags, fused parts or gaps limits assumed): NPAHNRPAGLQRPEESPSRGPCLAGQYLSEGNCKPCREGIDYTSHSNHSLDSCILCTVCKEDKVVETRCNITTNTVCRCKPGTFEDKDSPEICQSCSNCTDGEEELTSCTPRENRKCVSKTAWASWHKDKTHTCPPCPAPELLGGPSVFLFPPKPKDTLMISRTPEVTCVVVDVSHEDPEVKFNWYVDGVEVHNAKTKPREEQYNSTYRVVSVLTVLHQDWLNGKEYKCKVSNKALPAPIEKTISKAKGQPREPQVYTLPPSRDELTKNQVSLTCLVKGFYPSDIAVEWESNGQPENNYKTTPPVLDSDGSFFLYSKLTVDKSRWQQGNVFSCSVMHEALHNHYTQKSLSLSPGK

[31] = biological target: T2, TRAIL-R2 (DR5) ectodomain monomer, aa 58-184, without Fc (human, UniProt O14763 58-184); assay: SPR; UL141-Fc immobilized, TRAIL-R2 analyte
T2 construct: range 58-184; also called monomeric TRAIL-R2; TRAIL-R2 monomer
T2 sequence (O14763 58-184 limits assumed): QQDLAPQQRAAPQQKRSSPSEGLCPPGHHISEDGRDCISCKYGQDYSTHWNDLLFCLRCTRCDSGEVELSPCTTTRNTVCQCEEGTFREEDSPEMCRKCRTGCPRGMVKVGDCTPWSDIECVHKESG

[32] = biological target: T2, TRAIL-R2 (DR5) ectodomain monomer, aa …; assay: SPR, kinetic 1:1 fit; UL141-Fc immobilized, TRAIL-R2 analyte
[33] = biological target: T2, TRAIL-R2 (DR5) ectodomain monomer, aa …; assay: SPR, steady-state (KDeq); UL141-Fc immobilized, TRAIL-R2 analyte
[34] = biological target: T2, TRAIL-R2 (DR5) ectodomain monomer, aa …; assay: SPR, average of KDeq and KD (KDave); UL141-Fc immobilized, TRAIL-R2 analyte

Sequence of CD155-Fc (CD155/PVR ectodomain Fc fusion) (human) (P15151 21-343 limits assumed): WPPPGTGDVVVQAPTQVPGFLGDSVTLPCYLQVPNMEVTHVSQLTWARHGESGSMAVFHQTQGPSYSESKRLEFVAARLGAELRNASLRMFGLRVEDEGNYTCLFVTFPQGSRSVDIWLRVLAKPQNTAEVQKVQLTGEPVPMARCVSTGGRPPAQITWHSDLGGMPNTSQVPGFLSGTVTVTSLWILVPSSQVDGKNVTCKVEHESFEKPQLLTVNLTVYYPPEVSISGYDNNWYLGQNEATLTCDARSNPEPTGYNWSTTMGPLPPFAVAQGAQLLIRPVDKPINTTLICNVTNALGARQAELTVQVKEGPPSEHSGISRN

pre-formed UL141-TRAIL-R2 protein complex (from UniProt O14763 58-184)
Kd [1]: 2.19 nM
koff [2]: 0.000333 s⁻¹
kon [2]: 152000 M⁻¹ s⁻¹
Kd [3]: 2 nM

UL141 ectodomain (HCMV FIX strain) with C-terminal poly-histidine tag (ligand)
x-fold reduction in binding compared to wild type [4]: 7.2 fold
x-fold reduction in binding compared to wild type [5]: 9.2 fold
x-fold reduction in binding compared to wild type [6]: 106 fold
x-fold reduction in binding compared to wild type [7]: 2.6 fold
fold decrease in binding affinity against wild-type [8]: 7 fold
koff [9]: 0.000346 s⁻¹
kon [9]: 176000 M⁻¹ s⁻¹
koff [10]: 0.014 s⁻¹
kon [10]: 6020 M⁻¹ s⁻¹
koff [11]: 7.21e-05 s⁻¹
kon [11]: 12100 M⁻¹ s⁻¹
Kd [12]: 2 nM
Kd [13]: 6 nM
Kd [14]: 1.97 nM
Kd [15]: 2330 nM
Kd [16]: 5.96 nM
Kd [17]: 6 nM and 5.95 nM
koff [17]: 7.21e-05 s⁻¹
kon [17]: 12100 M⁻¹ s⁻¹
Kd [18]: 2.27 nM
Kd [19]: 60.4 nM
fold lower binding than wild-type [19]: 10 fold
koff [19]: 0.00151 s⁻¹
kon [19]: 25000 M⁻¹ s⁻¹
Kd [20]: 42.7 nM
fold lower binding than wild-type [20]: 10 fold
koff [20]: 0.00064 s⁻¹
kon [20]: 15000 M⁻¹ s⁻¹
Kd [21]: 55.3 nM
fold lower binding than wild-type [21]: 10 fold
koff [21]: 0.0013 s⁻¹
kon [21]: 23500 M⁻¹ s⁻¹
Kd [22]: 630 nM
fold lower binding than wild-type [22]: 100 fold
koff [22]: 0.00566 s⁻¹
kon [22]: 8980 M⁻¹ s⁻¹
Kd [23]: 7.74 nM
koff [23]: 0.00038 s⁻¹
kon [23]: 49100 M⁻¹ s⁻¹
Kd [24]: 7.49 nM
koff [24]: 0.000382 s⁻¹
kon [24]: 51000 M⁻¹ s⁻¹
Kd [25]: 8.32 nM
koff [25]: 0.000391 s⁻¹
kon [25]: 47000 M⁻¹ s⁻¹
Kd [26]: 6.26 nM
koff [26]: 0.000243 s⁻¹
kon [26]: 38800 M⁻¹ s⁻¹
Kd [27]: 15.5 nM
fold lower binding than wild-type [27]: 2.5 fold
koff [27]: 0.00048 s⁻¹
kon [27]: 31000 M⁻¹ s⁻¹
Kd [28]: 7.39 nM
koff [28]: 0.00027 s⁻¹
kon [28]: 36500 M⁻¹ s⁻¹
Kd [29]: 2300 nM

B1: UL141-Fc (UL141 ectodomain fused to the Fc region of human IgG1) (Fc fusion)
chain: DIAEKMWAENYETTSPAPVLVAEGEQVTIPCTVMTHSWPMVSIRARFCRSHDGSDELILDAVKGHRLMNGLQYRLPYATWNFSQLHLGQIFSLTFNVSTDTAGMYECVLRNYSHGLIMQRFVILTQLETLSRPDEPCCTPALGRYSLGDQIWSPTPWRLRNHDCGMYRGFQRNYFYIGRADAEDCWKPACPDEEPDRCWTVIQRYRLPGDCYRSQPHPPKFLPVTPAPPADIDTGMS
binding result [30]: no binding
koff [31]: 0.00564 s⁻¹
kon [31]: 264000 M⁻¹ s⁻¹
Kd [32]: 21.4 nM
Kd [33]: 19.8 nM
Kd [34]: 20 nM
